Substitutions are numbered along the chain they refer to.
Tests used:
Conditions in all cases: protein: recombinant; tags: GFP-GST (N-term); label: Atto647N 5' on strand 1; blunt
[1] = molecular target: T1, Rad54 D525S/D527S/S816D/S817D (Saccharomyces cerevisiae, UniProt P32863 1-898, D525S;D527S;S816D;S817D); assay: EMSA; apparent Kd; Hill fit; 3 mM Mg2+; EMSA: 35 mM Tris-Cl pH 7.5, 3 mM MgCl2, 50 mM KCl, 1 mM DTT, 10% glycerol, 10 nM DNA, 30 C, 5 min, 8% native PAGE in 0.5x TBE; DNA curtains: HR buffer (composition not given), 10 nM GFP-Rad54, flow 0.2 mL/min
T1 sequence: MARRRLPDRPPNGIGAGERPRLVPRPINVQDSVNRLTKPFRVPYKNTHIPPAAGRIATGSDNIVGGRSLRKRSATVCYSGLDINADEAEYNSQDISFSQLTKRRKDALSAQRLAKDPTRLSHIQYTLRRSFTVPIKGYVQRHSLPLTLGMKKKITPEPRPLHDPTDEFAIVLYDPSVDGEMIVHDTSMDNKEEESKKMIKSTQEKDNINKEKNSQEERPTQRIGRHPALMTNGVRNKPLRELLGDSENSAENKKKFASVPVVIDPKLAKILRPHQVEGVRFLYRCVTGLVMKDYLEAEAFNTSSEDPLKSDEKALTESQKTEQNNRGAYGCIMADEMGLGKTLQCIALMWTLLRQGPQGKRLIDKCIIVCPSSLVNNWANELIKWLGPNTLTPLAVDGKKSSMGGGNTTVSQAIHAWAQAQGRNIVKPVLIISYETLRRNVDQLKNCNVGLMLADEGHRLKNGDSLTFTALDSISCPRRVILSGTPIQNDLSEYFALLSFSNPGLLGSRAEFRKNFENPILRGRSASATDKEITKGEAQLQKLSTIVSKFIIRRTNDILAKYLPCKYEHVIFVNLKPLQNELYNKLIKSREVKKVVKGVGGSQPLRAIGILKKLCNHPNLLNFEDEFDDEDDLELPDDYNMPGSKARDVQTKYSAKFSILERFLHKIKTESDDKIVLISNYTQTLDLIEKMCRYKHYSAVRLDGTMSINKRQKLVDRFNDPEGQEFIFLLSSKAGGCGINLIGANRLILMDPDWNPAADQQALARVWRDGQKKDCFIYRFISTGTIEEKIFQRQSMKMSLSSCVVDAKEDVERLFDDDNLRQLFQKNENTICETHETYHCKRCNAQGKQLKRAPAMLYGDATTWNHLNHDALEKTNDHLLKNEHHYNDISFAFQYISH

Rad54 S816D/S817D = molecular target: T2, Rad54 S816D/S817D (Saccharomyces cerevisiae, UniProt P32863 1-898, S816D;S817D); assay: EMSA; apparent Kd; Hill fit; 3 mM Mg2+; p = 0.008 vs WT; EMSA: 35 mM Tris-Cl pH 7.5, 3 mM MgCl2, 50 mM KCl, 1 mM DTT, 10% glycerol, 10 nM DNA, 30 C, 5 min, 8% native PAGE in 0.5x TBE; DNA curtains: HR buffer (composition not given), 10 nM GFP-Rad54, flow 0.2 mL/min
T2 sequence: T1 sequence with S525D, S527D

Rad54 S816A/S817A = molecular target: T3, Rad54 S816A/S817A (Saccharomyces cerevisiae, UniProt P32863 1-898, S816A;S817A); assay: EMSA; 3 mM Mg2+; Kd slightly above WT, not significant; value only in figure; EMSA: 35 mM Tris-Cl pH 7.5, 3 mM MgCl2, 50 mM KCl, 1 mM DTT, 10% glycerol, 10 nM DNA, 30 C, 5 min, 8% native PAGE in 0.5x TBE; DNA curtains: HR buffer (composition not given), 10 nM GFP-Rad54, flow 0.2 mL/min
T3 sequence: T1 sequence with S525D, S527D, D816A, D817A

B1: 90 bp dsDNA (90-mer) (dsDNA)
DNA 1: GATGTTCTGCTGGATATGCACTTTTCCGGGCTGACGTACACCGTGCTCAGCCTGTTTTTCAGCGATCCGGATATGCATCCGCTGGATTTC
DNA 2: GAAATCCAGCGGATGCATATCCGGATCGCTGAAAAACAGGCTGAGCACGGTGTACGTCAGCCCGGAAAAGTGCATATCCAGCAGAACATC
**Q.** Which results are given for B1?
**A.** Kd [1]: ~18 nM; Kd (Rad54 S816D/S817D): 41 nM; binding result (Rad54 S816A/S817A): binds

Reference: publication PMC13138755, “Potential Rad54 separation of function mutation highlights unique roles during homologous recombination”
